Measured values taken from paper PMC13598120.

Biological target: GNL3, endogenous (UniProt Q9BVP2)
Assay: PLA (α-Flag + α-GNL3)
Conditions: U2OS cells, 2 h, read off a plot

GNL3, endogenous, sequence (Q9BVP2 whole entry): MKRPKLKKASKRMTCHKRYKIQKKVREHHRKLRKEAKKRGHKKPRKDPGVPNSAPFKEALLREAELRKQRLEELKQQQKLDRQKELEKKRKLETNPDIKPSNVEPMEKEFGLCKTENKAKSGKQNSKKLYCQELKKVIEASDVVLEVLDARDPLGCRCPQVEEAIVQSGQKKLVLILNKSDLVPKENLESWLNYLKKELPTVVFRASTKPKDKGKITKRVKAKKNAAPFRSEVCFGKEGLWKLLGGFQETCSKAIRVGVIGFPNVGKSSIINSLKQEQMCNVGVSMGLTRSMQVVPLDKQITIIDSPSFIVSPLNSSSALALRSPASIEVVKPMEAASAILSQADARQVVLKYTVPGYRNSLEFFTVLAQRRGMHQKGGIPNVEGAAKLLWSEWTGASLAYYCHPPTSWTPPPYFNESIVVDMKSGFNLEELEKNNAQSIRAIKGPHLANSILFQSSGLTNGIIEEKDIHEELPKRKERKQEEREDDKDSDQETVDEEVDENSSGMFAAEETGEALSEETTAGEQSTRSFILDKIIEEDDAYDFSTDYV

response (PLA dots per cell) (20 μM ETO, parent: est. 54): 28
response (PLA dots per cell) (DMSO (control), parent: est. 16): 11
Substance: Flag-BLM, wild type (from UniProt P54132) SIMdm (both SIMs, 217QIDL220 and 235VICI238, mutated; substitutions not printed)
